The values below come from US20140303084.

Some results are limits rather than exact numbers.

The subject of data set [1] is T1, CGGSGGRRAPGKLQCLASYCWLFWTGIAC
T1 sequence: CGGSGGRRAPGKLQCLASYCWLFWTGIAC

A further data set deals with T2, K-k-MeLeu-TCLASYCWLF
T2 sequence: KKLTCLASYCWLF

A further data set deals with T3, KLTCLASY-HCy-WLF.
T3 sequence: KLTCLASYXWLF

For a further data set, the system named is T4, KLTCLASYC-Nal-LF.
T4 sequence: KLTCLASYCXLF

Data set [2] has as its system T5, KLTCLASYCWLF-(PEG)4-CONH2.
T5 sequence: KLTCLASYCWLF

Data set [3] concerns T6, Lys(palmitoyl)-PEG16-Lys(PEG2-Biotin)-PEG16-rRAPGKLTCLASYCWLFWTGIA
T6 sequence: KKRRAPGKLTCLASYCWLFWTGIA

The next data set relates to T7, MAGMLKLTCFASYCGLFPLVSS
T7 sequence: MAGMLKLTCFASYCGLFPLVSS

Another data set relates to T8, NGGMQKPACLASQCWLFANPLP
T8 sequence: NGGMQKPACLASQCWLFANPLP

In the next data set the test system is T9, QQRQIKMSCLASYCWLFGSIPW
T9 sequence: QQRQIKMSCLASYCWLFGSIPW

Another data set concerns T10, RCAQSRLPWLVSYCWLFSPYGM
T10 sequence: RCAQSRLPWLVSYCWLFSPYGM

For data set [4], the system named is T11, RRAPGKLCALASYCWLFWTGIA-CONH2.
T11 sequence: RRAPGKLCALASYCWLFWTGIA

The test system of data set [5] is T12, RRAPGKLT-Lys-LASY-Asp-WLFWTGIA-COOH.
T12 sequence: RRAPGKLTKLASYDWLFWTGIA

Data set [6] relates to T13, RRAPGKLTCLASYCWLF WTGIA RWPSHRSGPS
T13 sequence: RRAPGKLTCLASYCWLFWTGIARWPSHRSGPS

In data set [7] the test system is T14, RRAPGKLTCLASYCWLF WTGWS RDTASHASDS
T14 sequence: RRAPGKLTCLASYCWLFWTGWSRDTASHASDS

The subject of data set [8] is T15, RRAPGKLTCLASYCWLfWTGIA.
T15 sequence: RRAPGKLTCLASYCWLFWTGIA

Data set [9] has as its system T16, RRAPGKLTCLASyCWLFWTGIA
T16 sequence: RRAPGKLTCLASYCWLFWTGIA

For data set [10], the system named is T17, RRAPGKLTClASYCWLFWTGIA
T17 sequence: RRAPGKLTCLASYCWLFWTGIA

In data set [11] the test system is T18, SRIRTVSPGSRSASGKSTCLASYCWLFWTGIA
T18 sequence: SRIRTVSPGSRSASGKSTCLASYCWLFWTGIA

Another data set has as its system T19, VSGTGKLTCLASYCWLFQLGSF
T19 sequence: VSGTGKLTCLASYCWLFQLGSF

The subject of a further data set is T20, k-MeLeu-TCLASYCQLF
T20 sequence: KLTCLASYCQLF

The test system of data set [12] is T21, rRAPGKLTCLASYCWLFWTGIA-PEG16-Lys(PEG2-Biotin)-PEG16-Lys(palmitoyl).
T21 sequence: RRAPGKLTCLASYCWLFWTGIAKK

As for human Factor IXa, the “Vmax, FXa generation assay; (++) means 1-2” value (in data set [1]; in data set [2]; in the data set with MAGMLKLTCFASYCGLFPLVSS; in the data set on NGGMQKPACLASQCWLFANPLP; in the data set on QQRQIKMSCLASYCWLFGSIPW; in data set [6]) was “(++)” throughout. Further, the “Vmax, FXa generation assay; (++) means 1-2” value with RRAPGKLTCLASYCWLfWTGIA [8], with RRAPGKLTClASYCWLFWTGIA [10] and in the data set with VSGTGKLTCLASYCWLFQLGSF was “(++)” in each case. Further, the Vmax, FXa generation assay with K-k-MeLeu-TCLASYCWLF was over 3; in the data set on KLTCLASY-HCy-WLF it was over 3; in the data set with KLTCLASYC-Nal-LF it was over 3; in [3], over 3; in the data set on RCAQSRLPWLVSYCWLFSPYGM, over 1.5; in data set [4], over 2. For the same substance, the Vmax, FXa generation assay in data set [5] is over 0.5; in data set [7], over 2; in the data set with RRAPGKLTCLASyCWLFWTGIA [9], over 2; in [11] it was over 3; in the data set on k-MeLeu-TCLASYCQLF, over 3; in [12], over 3.
